Measurements: PMC6684798, “Structural basis for the target specificity of actin histidine methyltransferase SETD3” (Nature Communications, 2019)

Molecular target: T1, SETD3 (Homo sapiens, UniProt Q86TU7)
T1 construct: GST (cleaved yes); made in house; host or cells: Escherichia coli BL21(DE3) CodonPlus
T1 sequence (Q86TU7 1-594): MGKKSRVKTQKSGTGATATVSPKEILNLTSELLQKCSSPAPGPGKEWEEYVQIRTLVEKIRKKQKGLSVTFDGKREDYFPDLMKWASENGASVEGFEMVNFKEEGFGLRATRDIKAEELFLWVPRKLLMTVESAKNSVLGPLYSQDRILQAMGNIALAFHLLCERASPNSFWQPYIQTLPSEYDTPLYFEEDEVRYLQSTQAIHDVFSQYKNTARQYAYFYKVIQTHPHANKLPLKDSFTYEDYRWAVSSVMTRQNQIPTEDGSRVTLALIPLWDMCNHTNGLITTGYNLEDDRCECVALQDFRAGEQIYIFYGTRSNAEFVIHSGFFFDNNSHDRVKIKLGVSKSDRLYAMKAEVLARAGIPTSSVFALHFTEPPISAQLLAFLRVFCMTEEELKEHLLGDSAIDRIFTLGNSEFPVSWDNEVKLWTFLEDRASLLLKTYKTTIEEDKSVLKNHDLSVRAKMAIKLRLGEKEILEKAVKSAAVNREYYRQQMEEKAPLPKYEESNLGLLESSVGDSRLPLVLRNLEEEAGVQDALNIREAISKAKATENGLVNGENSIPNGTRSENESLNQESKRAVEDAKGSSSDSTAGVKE
Test: SETD3 activity on K73(66-80) at two temperatures (Supplementary Fig. 3c)
Type: biochemical
Details: overnight, pH 8.0, [E]=15 µM, [SAM]=100 µM, [S]=700 µM
Experimental: Recombinant human SETD3 (pXC2003) was expressed as a GST-fusion[22] in Escherichia coli BL21(DE3) CodonPlus^TM cells (Stratagene). The SETD3 mutants at residue 255 (N255A; pXC2093 and N255V; pXC2094) were generated with Q5 Site-Directed Mutagenesis Kit (New England Biolabs), confirmed by sequencing and the same protocol for expression and purification were followed. Briefly, the purification was conducted in a BIO-RAD NGC^TM system using a three-column chromatography of glutathione-sepharose, HiTrap Q-HP and Superdex 200. The GST tag was removed by PreScisson Protease (purified in-house). The purified SETD3 proteins at a concentration ~25–35 mg/ml were kept at −80 °C in storage buffer for future use [20 mM Tris (pH 8.0), 200 mM NaCl, 5% glycerol, and 0.5 mM tris (2-carboxyethyl) phosphine (TCEP)].
For H73 (residues 66–80), a reaction mixture contained 20 mM Tris/HCl (pH 8.0), 50 mM NaCl, 0.1 mg/ml BSA, 1 mM DTT, 0.18 µM SETD3, 40 µM SAM, and 20 µM H73 peptide, the reaction was performed for 20 min (Supplementary Fig. 3b). For K73 (residues 66–80), a reaction mixture contained 20 mM Tris/HCl (pH 8.0), 50 mM NaCl, 0.1 mg/ml BSA, 1 mM DTT, 15 µM SETD3, 100 µM SAM, and 700 µM K73 peptide, the reaction was performed overnight (Supplementary Fig. 3c). All reactions were terminated by the addition of TFA to 0.1% (v/v). […]
conditions optimized for H73(66-80) (red line): [E]=0.18 µM, [SAM]=40 µM, [S]=20 µM, pH 8.0 at room temperature for indicated reaction time. b, SETD3 activity on H73(66-80) at two difference temperatures under the conditions of [E]=0.18 µM, [SAM]=40 µM, [SH7 3]=20 µM at pH 8. 0 for 20 min reaction. c, SETD3 activity on K73 (66-80 ) at room temperature (~22 °C) and 37 °C under the conditions of increased amounts of [E]=15 µM, [SAM]=100 µM and [S K73]=700 µM at pH 8.0 for overnight reaction. Data represent the mean ± SD of N number of independent determinations (N=2 in panels a and b and N=4 in panel c) performed in duplicate. Source data are provided as a Source Data file. d, A stereo image of omit electron density (Fo -Fc) omitting the side chain of K73 in the active site contoured at 4 s above the mean.
(1 picture or pasted object on this page, not shown here)

**Q.** What does the source list for “K73(66–80): K73-containing (H73K) actin peptide, residues 66–80 (TLKYPIEKGIVTNWD; UniProt P60709 66-80, looked up, variant H73K)”?
**A.** CH3 transferred (37 °C, replicate 1): 1.773 µM; CH3 transferred (37 °C, replicate 2): 2.482 µM; CH3 transferred (37 °C, replicate 3): 3.183 µM; CH3 transferred (37 °C, replicate 4): 3.325 µM; CH3 transferred (RT (~22 °C), replicate 1): 0.6813 µM; CH3 transferred (RT (~22 °C), replicate 2): 0.8003 µM; CH3 transferred (RT (~22 °C), replicate 3): 0.7535 µM; CH3 transferred (RT (~22 °C), replicate 4): 0.7963 µM
